Reference: publication PMC11940275

Molecular target: SARS-CoV-2 spike protein, Omicron BA.2 (on SmBiT-BA.2 pseudovirus) (SARS-CoV-2 Omicron BA.2) (UniProt P0DTC2)

ATCCAGAGTGACGCAGCATCGAGTGGCTTGTTTGTAATGTAGGGTTCCGGTCGTGGGTTGGACACGGTGGCTTAGT [76-mer aptamer]
IC50: 3.61 µM

ATCCAGAGTGACGCAGCATTTCATCGGGTCCAAAAGGGGCTGCTCGGGATTGCGGATATGGACACGT [67-mer aptamer]
IC50: 1.64 µM

CGCAGCACCCAAGAACAAGGACTGCTTAGGATTGCGATAGGTTCGG [46-mer aptamer]
IC50: 0.7 µM
